Data reported in PMC5582869.

B1: human ZDHHC6 (WT), Myc-tagged [human] / human ZDHHC6 (WT), Myc-tagged [human] (parent)
chain 1: MGTFCSVIKFENLQELKRLCHWGPIIALGVIAICSTMAMIDSVLWYWPLHTTGGSVNFIMLINWTVMILYNYFNAMFVGPGFVPLGWKPEISQDTMYLQYCKVCQAYKAPRSHHCRKCNRCVMKMDHHCPWINNCCGYQNHASFTLFLLLAPLGCIHAAFIFVMTMYTQLYHRLSFGWNTVKIDMSAARRDPLPIVPFGLAAFATTLFALGLALGTTIAVGMLFFIQMKIILRNKTSIESWIEEKAKDRIQYYQLDEVFVFPYDMGSRWRNFKQVFTWSGVPEGDGLEWPVREGCHQYSLTIEQLKQKADKRVRSVRYKVIEDYSGACCPLNKGIKTFFTSPCTEEPRIQLQKGEFILATRGLRYWLYGDKILDDSFIEGVSRIRGWFPRKCVEKCPCDAETDQAPEGEKKNR
chain 2: B1 chain 1

Variants of: B1
Experiment: co-immunoprecipitation (IP with myc antibodies, anti-GFP immunoblot, densitometry)
Conditions: HeLa cells transfected for 24 hr, n = 4, parent: 100, read off a plot

| Variant | percent of parent |
| --- | --- |
| chain 1 MGTFCSVIKFENLQELKRLCHWGPIIALGVIAICSTMAMIDSVLWYWPLHTTGGSVNFIMLINWTVMILYNYFNAMFVGPGFVPLGWKPEISQDTMYLQYCKVCQAYKAPRSHHCRKCNRCVMKMDHHCPWINNCCGYQNHASFTLFLLLAPLGCIHAAFIFVMTMYTQLYHRLSFGWNTVKIDMSAARRDPLPIVPFGLAAFATTLFALGLALGTTIAVGMLFFIQMKIILRNKTSIESWIEEKAKDRIQYYQLDEVFVFPYDMGSRWRNFKQVFTWSGVPEGDGLEWPVREGCHQYSLTIEQLKQKADKRVRSVRYKVIEDYSGAAAPLNKGIKTFFTSPATEEPRIQLQKGEFILATRGLRYWLYGDKILDDSFIEGVSRIRGWFPRKCVEKCPCDAETDQAPEGEKKNR [chain 1 C328A C329A C343A] | 39 % of WT |
